In one experiment the target is TRBP (Homo sapiens) (UniProt Q15633). Particulars: cited from earlier work.
The target of experiment [1] is human Dicer, wild type, full-length (human) (UniProt Q9UPY3). The experiment can be described thus: ITC. For orientation: Isothermal titration calorimetry measures the heat released or taken up as one component is titrated into another.

In the case of TRBP (from UniProt Q15633), in the experiment with TRBP (Homo sapiens), the Kd (as a rule, a measure of binding affinity in units of concentration) is 54000 nM.

B1: TRBP3: third dsRBD of human TRBP with its N-terminal extension, residues 258-366 (domain or fragment)
chain: NRGPGCTWDSLRNSVGEKILSLRSCSLGSLGALGPACCRVLSELSEEQAFHVSYLDIEELSLSGLCQCLVELSTQPATVCHGSATTREAARGEAARRALQYLKIMAGSK
In the case of B1, in experiment [1], the Kd turned out to be 4.3 nM, the dH was -23.2 kcal/mol and the stoichiometry N (commonly a count of units in the complex or per binding partner) was determined as 1.35.

B2: human TRBP (isoform TRBP2, 366 residues), full-length, residues 1-366 (natural protein)
chain: MSEEEQGSGTTTGCGLPSIEQMLAANPGKTPISLLQEYGTRIGKTPVYDLLKAEGQAHQPNFTFRVTVGDTSCTGQGPSKKAAKHKAAEVALKHLKGGSMLEPALEDSSSFSPLDSSLPEDIPVFTAAAAATPVPSVVLTRSPPMELQPPVSPQQSECNPVGALQELVVQKGWRLPEYTVTQESGPAHRKEFTMTCRVERFIEIGSGTSKKLAKRNAAAKMLLRVHTVPLDARDGNEVEPDDDHFSIGVGSRLDGLRNRGPGCTWDSLRNSVGEKILSLRSCSLGSLGALGPACCRVLSELSEEQAFHVSYLDIEELSLSGLCQCLVELSTQPATVCHGSATTREAARGEAARRALQYLKIMAGSK
For the molecule B2, in experiment [1], the Kd was 2.8 nM, the dH was -15.9 kcal/mol and the stoichiometry N worked out at 0.84.
